Consider two substances from paper PMC8546688.

What is called Kd is the free concentration of one partner at which half of the binding sites on the other are occupied at equilibrium, for simple one-to-one binding. As a reminder, the koff is the rate constant with which the complex falls apart. Low readings indicate slow dissociation, high ones fast dissociation. Usually kon stands for the second-order rate constant of association.

In this assay the target is His-tagged FtsZ (filamentous temperature-sensitive protein Z) (Streptococcus suis). Nature of the assay: SPR; His-tagged FtsZ immobilized onto sensor chips as the ligand; MsmK constructs in concentration series as analytes; buffer without protein as negative control. On the technique in general: Surface plasmon resonance follows binding to a sensor surface in real time, without labels.

In turn, “A_MsmK, MsmK with the Walker A motif deleted, His-tagged (from UniProt A0A0H3N1P0 1-376) (enzyme)” yielded a Kd of 0.406 nM, a koff of 0.000102 s⁻¹ and a kon of 251000 M⁻¹ s⁻¹.

Take “B_MsmK, MsmK with the Walker B motif deleted, His-tagged (from UniProt A0A0H3N1P0 1-376) (enzyme)”: the Kd is 0.309 nM, the koff is 0.000132 s⁻¹ and the kon stood at 427000 M⁻¹ s⁻¹.
